Test results taken from patent EP3444273A1 (Medicinal Bioconvergence Research Center, dated 2019).
Ends that are not written are not given here.

Tests used:
[1] = biological target: T1, BSA-conjugated AIMP2-DX2 antigen peptide (human, not fully specified (residue 12); also: C-terminal Cys conjugated to BSA carrier); test: ELISA, plate coated with BSA-conjugated antigen peptide, periplasmic extract
T1 construct: The BSA carrier is not written as a chain; also called AIMP2-DX2 antigen peptide (the same peptide used in the rabbit immunization, conjugated to BSA)
T1 peptide: GHVQDYGALKDC

wild-type AIMP2 protein = biological target: T2, wild-type AIMP2 protein (human, UniProt Q13155 1-320); test: Western blot of H460 cell lysate
T2 construct: Endogenous protein of H460 cell lysate; also called wild-type (WT) AIMP2
T2 sequence (looked up): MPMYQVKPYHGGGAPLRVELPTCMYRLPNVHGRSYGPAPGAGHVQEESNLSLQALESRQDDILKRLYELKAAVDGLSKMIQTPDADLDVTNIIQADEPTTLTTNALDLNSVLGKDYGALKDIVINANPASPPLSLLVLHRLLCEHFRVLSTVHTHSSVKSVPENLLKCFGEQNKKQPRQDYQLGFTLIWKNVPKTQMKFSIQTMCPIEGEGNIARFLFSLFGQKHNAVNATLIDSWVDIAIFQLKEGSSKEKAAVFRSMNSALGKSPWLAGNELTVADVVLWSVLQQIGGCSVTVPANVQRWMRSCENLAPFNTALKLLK

[2] = biological target: T3, AIMP2-DX2 antigen peptide (human, not fully specified); test: antigen pre-adsorption, Western blot of HEK293T lysate, peptide at 100 ug/ml
T3 construct: Used in solution for pre-adsorption in Western blots (100 ug/ml) and as analyte in SPR
T3 peptide: GHVQDYGALKD

[3] = biological target: T3, AIMP2-DX2 antigen peptide; test: SPR, H5 IgG coated on CM5 chip, peptide flowed at various concentrations

B1: H5 Fab (Fab, V domains shown)
VH: QEQLVESGGGLVTPGGTLTLTCTASGFTISSYHMTWVRQAPGKGLEWIGVISNSGGTSYANWAKGRFTISKTSTTVDLKITSPTTEDTATYFCVRGVPGINSNLWGQGTLVTISS
VL: AQVLTQTPSSVSAAVGGTVTINCQSSQSVYSGNWLAWYQQKPGQPPKLLIYSTSTLASGVPSRFKGSGSGTQFTLTVSDLECDDAATYYCAGDYDGYKNAFGGGTKVVVKR
notes: Expressed from pComb3XTT in E. coli and used as periplasmic extract; Detected with anti-HA tag or anti-human Fab secondary antibody, so a tag may be present; also called antibody (Fab) of clone H5; rabbit/human chimeric Fab
B1: binds [1]; no binding (wild-type AIMP2 protein); binds [2].

B2: H5 IgG antibody (antibody, V domains shown)
VH: QEQLVESGGGLVTPGGTLTLTCTASGFTISSYHMTWVRQAPGKGLEWIGVISNSGGTSYANWAKGRFTISKTSTTVDLKITSPTTEDTATYFCVRGVPGINSNLWGQGTLVTISS
VL: AQVLTQTPSSVSAAVGGTVTINCQSSQSVYSGNWLAWYQQKPGQPPKLLIYSTSTLASGVPSRFKGSGSGTQFTLTVSDLECDDAATYYCAGDYDGYKNAFGGGTKVVVKR
notes: also called H5 antibody (IgG); H5 antibody
B2: binds [3].
